Measurements: paper doi:10.1101/2021.05.24.445441 (bioRxiv, 2021)
No end group written: not given here.

Legend:
p75-TM-C257A (human) = experiment: NMR cross-correlated relaxation rates
NMR titration = target: the molecule itself; experiment: NMR titration

p75-TM-C257A (domain or fragment) showed a stoichiometry N (p75-TM-C257A (human)) of 2.

MKKDETPFGVSVAVGLAVFACLFLSTLLLVLNKAGRRNK (domain or fragment, also: 15N-labelled in one titration, unlabelled in the other) [human TrkA-TM]: binds (NMR titration).
